What is called Kd is the concentration at which binding is half-saturated. Higher therefore signals lower affinity.

Data on one sequence can be found in US20060234926.

This data set concerns the target beta2-microglobulin, native monomer (UniProt P61769). Put plainly: SPR. The following applies: at 0.5 uM RNA; 317 nM at 0.1 uM RNA; TMGA buffer pH 3.6.

beta2-microglobulin, native monomer, sequence (P61769 21-119): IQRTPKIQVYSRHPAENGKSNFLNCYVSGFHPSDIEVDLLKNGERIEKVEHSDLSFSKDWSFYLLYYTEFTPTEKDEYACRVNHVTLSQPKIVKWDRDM

As for “GGCNUGACANGGCAGGAUAGCCGGNCNANGCGANCNNUNGGNCCNCGANACCCGACNGUGG [N4]”, the Kd was found to be 104 nM.
